From PMC4046963

Target: Neisseria gonorrhoeae MtrE outer membrane channel (Neisseria gonorrhoeae) (UniProt Q51006)
Assay: crystal structure; sitting-drop vapor diffusion, 20% PEG 400, 0.2 M sodium acetate pH 4.6, 0.25 M MgSO4, 2% OG, 0.05% DDM; space group P6(3)22, one protomer per asymmetric unit; 3.29 Å

Work on “Neisseria gonorrhoeae MtrE outer membrane channel (from UniProt Q51006 1-467) (natural protein)” yielded a stoichiometry N of 3.
